Here are results for 6 molecules from patent US20050095674A1, “Cannabinoid receptor interacting proteins and methods of use” (priority 2003, published 2005).

For assay [1], the target named is rat CB1 cannabinoid receptor, wild type (rat) (UniProt P20272). Put plainly: cell-based or functional assay.
For assay [2], the target named is T1, CB1-464 truncated receptor (Rattus norvegicus, UniProt P20272).
T1 construct: expressed in transfected cells
Put plainly: Whole-cell patch clamp of Ca2+ currents in SCG neurons expressing the CB1-464 truncated receptor. It is filed as cell-based. As to conditions: coexpression of CRIP1a with CB1-464 truncated receptor.

For the next assay, the target named is T2, CB1 receptors (Rattus norvegicus, UniProt P20272).
T2 construct: expressed in transfected cells
T2 sequence (P20272 whole entry): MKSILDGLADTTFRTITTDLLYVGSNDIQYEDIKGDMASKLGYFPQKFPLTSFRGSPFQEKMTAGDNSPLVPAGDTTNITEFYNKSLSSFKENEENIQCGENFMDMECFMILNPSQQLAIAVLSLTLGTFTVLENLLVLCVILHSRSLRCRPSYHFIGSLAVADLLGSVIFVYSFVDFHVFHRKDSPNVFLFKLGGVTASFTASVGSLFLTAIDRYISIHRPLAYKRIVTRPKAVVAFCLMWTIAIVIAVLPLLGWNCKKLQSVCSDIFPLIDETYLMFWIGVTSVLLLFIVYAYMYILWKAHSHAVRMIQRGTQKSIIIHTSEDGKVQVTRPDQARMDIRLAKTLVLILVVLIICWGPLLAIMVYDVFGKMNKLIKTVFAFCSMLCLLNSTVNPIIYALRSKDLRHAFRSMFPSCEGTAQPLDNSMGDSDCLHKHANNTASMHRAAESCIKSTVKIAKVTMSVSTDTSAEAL
Kind of assay: Whole-cell patch clamp of Ca2+ currents in SCG neurons microinjected with rCB1 and rat CRIP1a. Format: cell-based. A general note: In patch-clamp work, channel activity is measured electrically.

Assay [3] concerns the target T3, C-terminus (amino acids 418-472) of the CB1 cannabinoid receptor (Homo sapiens, UniProt P21554).
T3 construct: expressed in transfected cells; host or cells: Y190 yeast cells
Put plainly: Yeast two hybrid, domains of CRIP1b against the CB1 C-terminus. Format: binding. The following applies: CRIP1b parts tested alone and in combination. Here is the method:
A human brain cDNA library (Clontech) containing 5×10^6 independent clones with an average insert size of 1.5 kb fused to the GALA activation domain was cotransformed into Y 190 yeast cells with a bait plasmid consisting of the amino acids at positions 418-472 of the human cannabinoid receptor (CB1) fused to the GALA DNA binding domain. An overnight culture of Y190 cells was diluted to an OD600 of 0.08 (20 ml/reaction) and incubated at 30° C. until an OD600 of 0.2-0.4. The cells were washed in […] of water and resuspended in […] of 100 mM LiAc, 10 mM Tris-HCl, pH 7.5, and 1 mM EDTA (LiAc/TE). Single stranded herring testis DNA (200 μg), 20 μg of bait plasmid, 20 μg of carrier plasmid, and 1.2 ml of 40% polyethyleneglycol/LiAc/TE were added to the cells, followed by incubation at 30° C. for 30 minutes at 225 rpm. […] After incubation of the plates at 30° C. for 3-5 days, β-galactosidase activity of the colonies was assessed by lifting colonies onto filters, lysing the colonies by freezing in liquid nitrogen, and exposing the filters to 20 mg/ml X-gal in phospate-containing buffer.
To determine which domains of CRIP1b interact with the C-terminus (amino acids 418-472) of the CB1 cannabinoid receptor, yeast two hybrid experiments were performed. […] When each exon was tested alone, no interaction was detected (FIGS. 5A, 5C, and 5E). […]

In assay [4] the target is T4, amino acids at positions 418-472 of the human cannabinoid receptor (CB1) fused to the GALA DNA binding domain (human, UniProt P04386 1-147; P21554 418-472).
T4 construct: Yeast two-hybrid bait in Y190 cells; also called bait plasmid
Kind of assay: yeast two-hybrid, beta-galactosidase colour.

The target in assay [5] is T5, C-terminal tail of CB1 (amino acids 464-473 of rat CB1) (Rattus norvegicus, UniProt P20272).
T5 construct: C-terminal tail of CB1 (amino acids 464-473 of rat CB1); expressed in transfected cells; host or cells: yeast (strain not restated for this experiment)
Put plainly: Yeast two-hybrid, CB1 receptor interaction site with CRIP1b. Format: binding. The source says: The yeast two-hybrid technique was used to determine the CB1 receptor interaction site with CRIP1b. The C-terminus of the CB1 receptor contains separate domains critical for desensitization and internalization (Hsieh et al., 1999; Jin et al., 1999).

The next assay addresses T6, GST-CB1 (418-472) (Homo sapiens, UniProt P21554).
T6 construct: encoding amino acids at position 418-472 of the CB1 receptor into the pGEX-4T-1 expression vector; made in house; host or cells: bacteria; BL21(DE3) E. coli is stated for CRIP1b only
Put plainly: In vitro pull-down assay (GST affinity chromatography) of bacterially expressed proteins. Format: binding. Here is the method: To confirm the interaction between the CB1 cannabinoid receptor and the interacting protein CRIP1b, in vitro pull-down assays of bacterially expressed proteins were performed. A GST fusion peptide was created between GST and a peptide of the CB1 receptor by cloning the polynucleotide sequence encoding amino acids at position 418-472 of the CB1 receptor into the pGEX-4T-1 expression vector. This GST fusion peptide was expressed and purified using standard protocols. GST alone and purified GST/CB1 fusion peptide were coupled to a first and second Glutathione Sepharose-4B column, respectively, as per standard protocols (Smith and Johnson, 1988, Gene, 67:31-40).
Polymerase chain reaction (PCR) was used to amplify the amino acids at positions 34-128 of CRIP1b in the pCT2 shuttle vector with EcoRI and XhoI restriction endonuclease sites. The PCR product was inserted in-frame into a pET30C expression plasmid harboring an S-tag (Novagen, Wis.). The resulting plasmid was transformed into BL21(DE3) E. coli cells, and these cells were induced to express CRIP1b by the introduction of isopropyl β-D-thiogalactopyranoside.
The bacteria were lysed in a buffer containing 50 mM Tris-Cl (pH 8.0), 1 mM EDTA, 100 mM NaCl, phenylmethylsulfonylfluoride (PMSF) (8 μl of 50 mM PMSF per gram of bacterial pellet). […]

Assay [6] concerns the target T7, GST alone coupled to Glutathione Sepharose-4B (UniProt P08515 1-218 = GST).
T7 construct: the lane descriptions speak of glutathione Sepharose only; also called GST column; glutathione sepharose only column
Kind of assay: affinity chromatography on Glutathione Sepharose-4B, SDS-PAGE and S-tag Western blot. (In general: A western blot detects proteins with antibodies after separation by electrophoresis.)

T3 sequence (P21554 418-472): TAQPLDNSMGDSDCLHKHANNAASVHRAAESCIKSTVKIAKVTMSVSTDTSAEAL
T6 sequence (P21554 418-472): as above
T1 sequence (P20272 1-464 limits assumed): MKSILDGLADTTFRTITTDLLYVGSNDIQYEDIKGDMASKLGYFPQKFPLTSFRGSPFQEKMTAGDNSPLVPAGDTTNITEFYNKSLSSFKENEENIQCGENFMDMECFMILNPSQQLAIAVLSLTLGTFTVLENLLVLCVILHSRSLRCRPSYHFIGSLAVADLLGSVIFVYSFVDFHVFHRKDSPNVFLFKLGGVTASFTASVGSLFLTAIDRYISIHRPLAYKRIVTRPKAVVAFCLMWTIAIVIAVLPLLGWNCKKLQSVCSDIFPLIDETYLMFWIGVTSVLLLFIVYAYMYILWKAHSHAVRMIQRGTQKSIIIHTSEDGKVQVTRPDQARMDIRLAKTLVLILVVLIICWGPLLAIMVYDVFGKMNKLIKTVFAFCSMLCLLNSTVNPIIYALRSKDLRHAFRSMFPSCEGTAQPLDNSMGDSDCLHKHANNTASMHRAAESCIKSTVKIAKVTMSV
T7 sequence (P08515 whole entry): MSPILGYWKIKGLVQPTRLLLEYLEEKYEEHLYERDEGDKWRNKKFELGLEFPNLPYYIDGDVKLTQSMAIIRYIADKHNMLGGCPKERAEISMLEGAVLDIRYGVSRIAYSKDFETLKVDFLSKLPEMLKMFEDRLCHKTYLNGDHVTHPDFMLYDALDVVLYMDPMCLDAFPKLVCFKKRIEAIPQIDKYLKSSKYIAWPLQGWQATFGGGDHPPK

On to rat CRIP1a (from UniProt Q5M7A7 1-164), for which the Ca^2+ current facilitation ratio in assay [1] came out at 1.26.

B1: CRIP1a: CB1 receptor interacting protein 1a cloned from rat brain cDNA, 164 amino acids, SEQ ID NO:7 (protein, listed as Rattus sp.)
chain: MGDLPGIVRLSIALRIQPNDGPVFFKVDGQRFGQNRTIKLLTGSSYKVEVKIKPTTLQVENISIGGVLVPLELKCKEPDGERVVYTGIYDTEGVAPTKSGERQPIQITMPFTDIGTFETVWQVKFYNYHKRDHCQWGSPFSVIEYECKPNETRSLMWVNKESFL
For the molecule B1, the “effect on SR141716-induced increase of Ca2+ current” value is “did not significantly inhibit effect of SR141716” in assay [2] and “had no effect” with CB1 receptors (expression of CRIP1a alone, without CB1). In addition, the “Ca2+ current facilitation ratio” value with CB1 receptors (SCG neurons expressing CB1 receptors co-expressed with CRIP1a, 1.46±0.08 with CB1 alone) amounted to 1.26±0.03. Also, in the assay with CB1 receptors (SCG neurons expressing both CB1 and CRIP1a), the “effect on agonist-induced (WIN55,212-2) inhibition of the Ca2+ current” value was “had no effect on the agonist-induced inhibition of the Ca^2+ current”. For the same molecule, in the assay with CB1 receptors (co-expression of CRIP1a with CB1 receptors in SCG neurons), the “effect on SR141716-induced increase of Ca2+ current (constitutive activity of CB1)” value is given as “significantly inhibited the effect of SR141716”.

B2: CRIP1b exon 1 and exon 2: Exon 1 (amino acids 34-60 of SEQ ID NO:2) and exon 2 (amino acids 61-110) in combination (protein, listed as Homo sapiens)
chain: QNRTIKLLTGSSYKVEVKIKPSTLQVENISIGGVLVPLELKSKEPDGDRVVYTGTYDTEGVTPTKSGERQPIQITMP
For the molecule B2, in assay [3], the “interaction in yeast two hybrid” value was “positive interaction”.
Consider NISIGGVLVPLELKSKEPDGDRVVYTGTYDTEGVTPTKSGERQPIQITMP (other, not shown: large carriers, Yeast two-hybrid construct) [CRIP1b exon 2 (amino acids 61-110 of SEQ ID NO:2)], for which the binding result in assay [4] is “no binding”.

B3: CRIP1b: CB1 Receptor Interacting Protein 1b, 128 amino acid human polypeptide, SEQ ID NO:2; amino acids 34-128 used in pull-down (protein, listed as Homo sapiens)
chain: MGDLPGLVRLSIALRTQPNDGPVFYKVDGQRFGQNRTIKLLTGSSYKVEVKIKPSTLQVENISIGGVLVPLELKSKEPDGDRVVYTGTYDTEGVTPTKSGERQPIQITMPECLEQRPQEISLTYECEE
In the case of B3, the “interaction in yeast two-hybrid with the most distal 9 amino acids of the CB1 receptor” value in assay [5] (minimal CB1 domain tested) is “strong interaction”. Moreover, the “interaction in yeast two-hybrid with the CB1 desensitization and internalization domains” value in assay [5] (separate C-terminal domains of CB1) was “neither of these domains interacted strongly”. For the same molecule, the “pull-down by GST-CB1 (418-472) on glutathione-Sepharose 4B” value with GST-CB1 (418-472) (S-tagged CRIP1b (amino acids 34-128) bacterial lysate) is “pulled down”. Further, the “binding to glutathione Sepharose-4B matrix without CB1 fragment (control)” value in the assay with GST-CB1 (418-472) (S-tagged CRIP1b bacterial lysate) is given as “did not bind to glutathione Sepharose-4B on its own”.

B4: S-tagged CRIP1b (amino acids at positions 34-128) expressed from pET30C in BL21(DE3) E. coli (other)
chain: QNRTIKLLTGSSYKVEVKIKPSTLQVENISIGGVLVPLELKSKEPDGDRVVYTGTYDTEGVTPTKSGERQPIQITMPECLEQRPQEISLTYECEE
notes: also called CB1-IP1; CRIP1b lysate; not shown: vector-encoded leader of pET30C with the S-tag
For the molecule B4, the binding result in assay [6] is “no binding”. In addition, in assay [3], the “interaction in yeast two hybrid” value is “enhanced”.
